# Experiments:
# [1] = target: T1, hIGF-1R-Fc mutant SD207 (G265Y) (human, UniProt P08069 31-933); assay: SPR, antibody over captured mutant
# T1 construct: not shown: human IgG1 Fc, C-terminal tag
# Protocol: (§1) Surface plasmon resonance (SPR) experiments were performed on a Biacore 3000 instrument set to 25° C. […] The antibody sensorchip surfaces were prepared by injecting each antibody (diluted 100 μg/mL in 10 mM Acetate, pH 4.0) over EDC/NHS-activated sensorchip surfaces according to the standard protocol of the manufacturer. […] Both hIGF-1R-Fc and mIGF-1R-Fc proteins oligomerize due to the incorporation of two separate homodimeric regions (IGF-1R and IgG1-Fc). […] After, completion of the receptor-Fc loading step, flow rates were elevated to 5 μl/min. […] Dissociation was measured for 7 minutes after the antibody injections were complete. Finally, the flow rate was elevated to 30 μL/min and the chip surfaces were regenerated by 2×10 μL injections of 0.1 M glycine, pH 2.
# [2] = target: T2, hIGF-1R-Fc mutant SD203 (N254A) (human, UniProt P08069 31-933); assay: SPR, antibody over captured mutant
# T2 construct: not shown: human IgG1 Fc, C-terminal tag
# T2 sequence (P08069 31-933 N284A): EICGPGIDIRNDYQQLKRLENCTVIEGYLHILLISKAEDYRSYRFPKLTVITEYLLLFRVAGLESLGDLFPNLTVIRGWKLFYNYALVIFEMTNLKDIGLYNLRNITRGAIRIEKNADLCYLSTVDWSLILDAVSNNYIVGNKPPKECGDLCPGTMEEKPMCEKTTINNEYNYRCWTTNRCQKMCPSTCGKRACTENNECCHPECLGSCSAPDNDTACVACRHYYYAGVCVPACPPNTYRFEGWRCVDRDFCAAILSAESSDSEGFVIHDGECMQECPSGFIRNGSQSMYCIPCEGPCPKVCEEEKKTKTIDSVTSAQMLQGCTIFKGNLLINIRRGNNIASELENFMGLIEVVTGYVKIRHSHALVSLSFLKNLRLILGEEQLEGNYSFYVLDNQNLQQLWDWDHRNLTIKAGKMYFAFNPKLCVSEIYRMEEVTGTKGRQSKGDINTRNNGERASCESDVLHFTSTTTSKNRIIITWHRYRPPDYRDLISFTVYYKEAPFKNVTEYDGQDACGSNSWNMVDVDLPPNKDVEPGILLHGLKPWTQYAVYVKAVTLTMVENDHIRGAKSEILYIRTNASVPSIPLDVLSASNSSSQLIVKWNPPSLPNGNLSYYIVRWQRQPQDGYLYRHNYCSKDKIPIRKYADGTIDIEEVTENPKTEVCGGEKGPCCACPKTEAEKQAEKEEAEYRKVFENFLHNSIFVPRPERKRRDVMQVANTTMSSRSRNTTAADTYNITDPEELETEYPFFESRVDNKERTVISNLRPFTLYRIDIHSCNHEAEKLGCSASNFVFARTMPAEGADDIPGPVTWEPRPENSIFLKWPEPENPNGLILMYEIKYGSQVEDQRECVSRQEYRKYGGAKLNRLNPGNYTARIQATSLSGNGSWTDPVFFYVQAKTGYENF
# Protocol: as §1
# [3] = target: T3, human IGF-1R on H322M non-small cell lung cancer cells (human, UniProt P08069 31-1367); assay: flow cytometry on H322M cells, anti-human Fc PE secondary (FIG. 55B)
# T3 construct: Endogenous receptor of the tumor cell line; also called cell surface IGF-1R
# T3 sequence (P08069 31-1367, stated change not applied): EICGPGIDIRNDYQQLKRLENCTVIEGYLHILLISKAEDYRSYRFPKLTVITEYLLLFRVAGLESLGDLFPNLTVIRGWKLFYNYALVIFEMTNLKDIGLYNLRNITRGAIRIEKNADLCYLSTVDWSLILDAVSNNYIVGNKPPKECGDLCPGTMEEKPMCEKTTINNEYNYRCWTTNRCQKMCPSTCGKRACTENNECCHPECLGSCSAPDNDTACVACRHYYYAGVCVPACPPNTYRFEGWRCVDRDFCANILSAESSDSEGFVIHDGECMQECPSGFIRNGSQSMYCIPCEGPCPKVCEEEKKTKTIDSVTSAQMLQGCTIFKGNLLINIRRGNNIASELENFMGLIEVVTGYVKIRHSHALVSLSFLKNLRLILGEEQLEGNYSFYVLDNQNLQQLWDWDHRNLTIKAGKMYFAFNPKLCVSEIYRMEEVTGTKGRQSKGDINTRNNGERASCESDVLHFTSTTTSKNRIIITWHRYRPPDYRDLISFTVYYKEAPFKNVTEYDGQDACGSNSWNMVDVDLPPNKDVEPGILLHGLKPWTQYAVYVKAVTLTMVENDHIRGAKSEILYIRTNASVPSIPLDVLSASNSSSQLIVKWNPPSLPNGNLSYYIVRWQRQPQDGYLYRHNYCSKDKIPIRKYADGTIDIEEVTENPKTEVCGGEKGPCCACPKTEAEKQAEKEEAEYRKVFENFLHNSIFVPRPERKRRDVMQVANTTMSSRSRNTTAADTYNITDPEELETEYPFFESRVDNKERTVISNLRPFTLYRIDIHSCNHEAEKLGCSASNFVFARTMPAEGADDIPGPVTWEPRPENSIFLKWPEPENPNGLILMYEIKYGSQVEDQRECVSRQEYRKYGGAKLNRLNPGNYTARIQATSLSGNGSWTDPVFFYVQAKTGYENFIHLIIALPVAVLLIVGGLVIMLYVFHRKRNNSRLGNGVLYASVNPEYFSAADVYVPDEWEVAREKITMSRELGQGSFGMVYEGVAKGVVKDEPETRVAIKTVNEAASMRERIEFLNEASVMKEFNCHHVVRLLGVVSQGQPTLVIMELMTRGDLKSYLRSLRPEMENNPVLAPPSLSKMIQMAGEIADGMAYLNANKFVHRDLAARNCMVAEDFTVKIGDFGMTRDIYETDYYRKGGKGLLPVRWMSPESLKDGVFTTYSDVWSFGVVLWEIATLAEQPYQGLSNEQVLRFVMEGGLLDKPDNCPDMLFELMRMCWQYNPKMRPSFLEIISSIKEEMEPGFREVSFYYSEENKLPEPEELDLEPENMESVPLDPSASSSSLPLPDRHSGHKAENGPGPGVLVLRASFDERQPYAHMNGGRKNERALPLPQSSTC
# Protocol: (§2) Cell lines were routinely cultured no greater than 20 passages. Flow cyotometric analysis of antibody binding to human cancer cells. Cells were lifted with cell dissociation buffer (Gibco catalog #13151-014), counted, washed and adjusted to 5×10⁶ cells/ml. Cells (2.5×10⁵; 50 uL) were added to each well of a 96-well round bottom plate (Costar #3799). Purified antibodies were tested at a starting concentration of 300 nM with serial half-log dilutions in FACS buffer. FACS buffer used throughout the assay was PBS (without Ca++/Mg++) containing 5% FBS. Samples were incubated on ice for 30 minutes, washed 3× with 200 uL FACS buffer and centrifuged at 1200 rpm for 3 minutes at 4° C. C2B8 (rituximab, IgG1) was used as a negative control. […] Samples were incubated for an additional 30 minutes on ice, shielded from light. Cells were washed as described above and resuspended in 100 μl FACS buffer containing propidium iodide (PI) for dead cell exclusion (BD Pharmingen, catalog# 51-66211E or 556463; use at 1:500 final in FACS buffer). Samples were run in triplicate using the FACSArray flow cytometer (Becton Dickinson) with 5000 live events collected per sample. Data analysis was performed using the GraphPad Prism version 5.0 software (GraphPad Software Inc., 11452 El Camino Real #215, San Diego, Calif. 92130). Results. […]
# human IGF-1R(1-903)-Fc [4] = target: T4, human IGF-1R(1-903)-Fc (human, UniProt P08069 31-933); assay: IGF-1 blocking ELISA at 20 nM IGF-1 His on biotinylated hIGF-1R-Fc
# T4 construct: also called hIGF-1R-Fc; SDWT; not shown: human IgG1 Fc, C-terminal tag
# T4 sequence (P08069 31-933): as the sequence (P08069 31-933 N284A) above, with A254N counted along it
# Protocol: (§3) The dilutions were added to the plates in duplicate at 100 μL/well and the plates were incubated at RT for 1 hour. The plates were then washed four times with 200 μL/well PBST. An HRP-conjugated anti-Histag antibody (Penta-His HRP Conjugate, QIAGEN, Cat. No. 1014992) was diluted 1:1000 in PBST and added to plates at 100 μL/well, and the plates were incubated at RT for one hour. The plates were then washed four times with 200 μL/well PBST. SureBlue Reserve TMB Microwell Peroxidase Substrate (KPL, Cat. No. 53-00-01) was added to plates at 100 μL/well followed by 1% phosphoric acid at 100 μL/well once the desired reaction was observed. The absorbance of each well was determined at 450 nm, and the results were normalized and plotted against the log of antibody concentration.
# (§4) Ligand Blocking Properties.
# sIGF-1R(1-903) [5] = target: T5, sIGF-1R(1-903) (human, UniProt P08069 31-933); assay: ITC series titration, G11 MAb into sIGF-1R(1-903) holding excess C06 MAb
# T5 construct: also called soluble IGF-1R ectodomain
# T5 sequence (P08069 31-933): as the sequence (P08069 31-933 N284A) above, with A254N counted along it
# Protocol: (§5) The protein solutions were prepared as described above for the MAb binding experiments. All ITC experiments were performed on an ITC₂₀₀ microcalorimeter (MicroCal, LLC) at 25° C. […] IGF-1R bispecific antibodies. A four minute equilibration period was used between all injections with an initial delay of 60 seconds. Numerical integration of the data was performed using the ITC data analysis software supplied by MicroCal (Origin). ΔHA° (T) values were calculated based on the difference between the average heat liberated/absorbed during the binding phase of the injections and the average heat of dilution found once the receptor, IGF-1R, was saturated with MAb or BsAb.
# Both the dimeric receptor and the bivalent MAbs contain two potential binding sites.
# [6] = target: T3, human IGF-1R on H322M non-small cell …; assay: flow cytometry on H322M cells
# Protocol: as §2
# [7] = target: T6, human IGF-1R(1-902)-His10 (human, UniProt P08069 31-932); assay: SPR competition (Biacore 3000): soluble antibody titrated into 40 nM hIGF-1R-His, mixture injected over immobilized M14-G11
# T6 construct: Bought from R&D Systems (305-GR-050); also called hIGF-1R-His10; hIGF-1R-His
# T6 sequence (P08069 other isoform, or with tags, fused parts or gaps): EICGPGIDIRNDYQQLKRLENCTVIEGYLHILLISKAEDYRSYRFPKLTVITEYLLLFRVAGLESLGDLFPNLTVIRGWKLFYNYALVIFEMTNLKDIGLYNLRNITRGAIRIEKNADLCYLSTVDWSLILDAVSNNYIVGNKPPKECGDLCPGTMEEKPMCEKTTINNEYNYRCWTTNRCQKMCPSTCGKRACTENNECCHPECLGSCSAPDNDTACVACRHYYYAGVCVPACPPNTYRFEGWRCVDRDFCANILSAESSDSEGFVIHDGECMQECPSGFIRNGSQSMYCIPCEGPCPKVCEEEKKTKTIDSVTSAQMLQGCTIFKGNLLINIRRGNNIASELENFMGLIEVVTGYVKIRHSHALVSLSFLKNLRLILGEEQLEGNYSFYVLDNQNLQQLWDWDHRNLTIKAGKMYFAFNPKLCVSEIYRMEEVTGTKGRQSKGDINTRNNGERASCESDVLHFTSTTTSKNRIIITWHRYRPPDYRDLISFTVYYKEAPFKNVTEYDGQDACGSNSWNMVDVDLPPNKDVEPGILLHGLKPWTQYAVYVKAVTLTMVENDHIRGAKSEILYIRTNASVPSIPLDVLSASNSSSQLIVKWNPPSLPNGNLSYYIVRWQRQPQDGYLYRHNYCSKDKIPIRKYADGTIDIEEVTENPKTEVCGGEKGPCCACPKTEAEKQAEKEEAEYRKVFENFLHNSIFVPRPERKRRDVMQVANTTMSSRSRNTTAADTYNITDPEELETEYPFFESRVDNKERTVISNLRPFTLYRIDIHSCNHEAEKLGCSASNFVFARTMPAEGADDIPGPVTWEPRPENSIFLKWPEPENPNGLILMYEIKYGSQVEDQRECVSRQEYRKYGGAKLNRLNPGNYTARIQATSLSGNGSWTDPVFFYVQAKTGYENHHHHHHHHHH
# Protocol: Regeneration was achieved by three 10 μL injections of 0.1 M glycine, pH 2.0. 100% hIGF-1R-His binding to each antibody was determined by the signal above the baseline under mass transport-limiting conditions 60 seconds into the injection.
# [8] = target: T3, human IGF-1R on H322M non-small cell …; assay: flow cytometry on H322M cells, anti-human Fab PE secondary (FIG. 55A)
# Protocol: as §2
# human IGF-1R(1-903)-Fc [9] = target: T4, human IGF-1R(1-903)-Fc; assay: ELISA, blocking of IGF-2 His (640 nM by the table head) on biotinylated hIGF-1R-Fc
# human IGF-1R(1-903)-Fc [10] = target: T4, human IGF-1R(1-903)-Fc; assay: IGF-2 blocking ELISA: antibody titrated in 640 nM IGF-2 His on biotinylated hIGF-1R-Fc on streptavidin plates, bound ligand detected with anti-His-HRP
# [11] = target: T3, human IGF-1R on H322M non-small cell …; assay: cell-based or functional assay
# sIGF-1R(1-903) [12] = target: T5, sIGF-1R(1-903); assay: ITC, 25 °C, antibody into sIGF-1R(1-903)
# Protocol: as §5, with “Isothermal Titration Calorimetry (ITC). […] The reagents were co-dialyzed against PBS, pH 7.2. The protein solutions were adjusted to the concentrations listed above by dilution using PBS dialysate. […] The” for “The”
# sIGF-1R(1-903) [13] = target: T5, sIGF-1R(1-903); assay: equilibrium solution-phase SPR, free sIGF-1R(1-903) read on G11 surface
# human IGF-1R(1-903)-Fc [14] = target: T4, human IGF-1R(1-903)-Fc; assay: ELISA, blocking of 320 nM IGF-1 His on biotinylated hIGF-1R-Fc
# Protocol: as §3, with “hIGF-1R-Fc was biotinylated using EZ-Link Sulfo-NHS-LC-Biotin according to the protocol provided by the manufacturer (Pierce Cat. No. 21335). Biotinylated human IGF-1R Fc (NB12453-9) at 5 μg/ml was added to the wells of SigmaScreen streptavidin-coated 96-well plates (Sigma, Cat. No. M5432-5EA) at 100 μL/well and incubated overnight at 2-8° C. The plates were then washed four times with 200 μL/well PBST. […] The dilutions” for “The dilutions”
# sIGF-1R(1-903) [15] = target: T5, sIGF-1R(1-903); assay: ITC, 25 °C; footnote a: affinity too high for accurate measurement
# Protocol: as §5, with “Isothermal Titration Calorimetry (ITC). […] The reagents were co-dialyzed against PBS, pH 7.2. The protein solutions were adjusted to the concentrations listed above by dilution using PBS dialysate. […] The” for “The”
# [16] = target: T7, hIGF-1R-Fc mutant SD008 (S257F) (human, UniProt P08069 31-933); assay: SPR, Fab over captured mutant hIGF-1R-Fc
# T7 construct: not shown: human IgG1 Fc, C-terminal tag
# T7 sequence (P08069 31-933 S287F): as the sequence (P08069 31-933 N284A) above, with A254N, S257F counted along it
# Protocol: as §1
# [17] = target: T8, hIGF-1R-Fc mutant SD012 (E303G) (human, UniProt P08069 31-933); assay: SPR, Fab over captured mutant hIGF-1R-Fc
# T8 construct: not shown: human IgG1 Fc, C-terminal tag
# T8 sequence (P08069 31-933 E333G): as the sequence (P08069 31-933 N284A) above, with A254N, E303G counted along it
# Protocol: as §1
# [18] = target: T9, hIGF-1R-Fc mutant SD202 (D250S) (human, UniProt P08069 31-933); assay: SPR, Fab over captured mutant
# T9 construct: not shown: human IgG1 Fc, C-terminal tag
# T9 sequence (P08069 31-933 D280S): as the sequence (P08069 31-933 N284A) above, with D250S, A254N counted along it
# Protocol: as §1
# [19] = target: T10, hIGF-1R-Fc mutant SD201 (D248A) (human, UniProt P08069 31-933); assay: SPR, Fab over captured mutant
# T10 construct: not shown: human IgG1 Fc, C-terminal tag
# T10 sequence (P08069 31-933 D278A): as the sequence (P08069 31-933 N284A) above, with D248A, A254N counted along it
# Protocol: as §1
# human IGF-1R(1-903)-Fc [20] = target: T4, human IGF-1R(1-903)-Fc; assay: IGF-1 blocking ELISA: antibody titrated in 320 nM IGF-1 His on biotinylated hIGF-1R-Fc on streptavidin plates, bound ligand detected with anti-His-HRP
# Protocol: as §3, §4
# T1 sequence (P08069 31-933 G295Y): as the sequence (P08069 31-933 N284A) above, with A254N, G265Y counted along it
binder,measurement,setting,value
"P1E2 chimeric antibody (antibody, V domains shown, also called DE12 Chimera; P1E2.3B12 variable domains) VH: QVQLQQPGAELVKPGASVKLSCKASGYTFTSYWMHWVKQRPGQGLEWIGEINPTYGRSNYNEKFKSKATLTVDKSSSTAYMQLSSLTSEDSAVYYCARLVRLRYFDVWGAGTTVTVSS VL: DIVMTQAAFSNPVTLGTSASISCRSSKSLLHSNGITYLYWYLQKPGQSPQLLIYQMSNLASGVPDRFSSSGSGTDFTLRISRVEAEDVGVYYCAQNLELPYTFGGGTKLEIK",binding result,[1],no binding (tested: up to 30 nM antibody)
same,binding result,[2],no binding (tested: up to 30 nM antibody)
"M14-G11 antibody (antibody, V domains shown, Fully human full-length antibody; also called M14.G11.G4.P.agly; G11.G4P.agly) VH: EVQLLESGGGLVQPGGSLRLSCAASGFTFSNYPMYWVRQAPGKGLEWVSRISSSGGRTVYADSVKGRFTISRDNSKNTLYLQMNSLRAEDTAVYYCARDRWSRSAAEYGLGGYWGQGTLVTVSS VL: not shown",EC50,[3],0.72 nM
same,IC50 (read off the curve),human IGF-1R(1-903)-Fc [4],~2 nM
same,ΔH°,sIGF-1R(1-903) [5],-16.2 kcal/mol
same,EC50,[6],< 1 nM
same,IC50 (read off the curve),[7],~20 nM
same,EC50,[8],0.44 nM
same,IC50,human IGF-1R(1-903)-Fc [9],7.9 nM
same,IC50 (read off the curve),human IGF-1R(1-903)-Fc [10],~2 nM
same,"reduction of surface IGF-1R after 24 hours (FACS, H322M cells)",[11],> 70%
same,ΔH°,sIGF-1R(1-903) [12],-26.6 kcal/mol
same,Kd,sIGF-1R(1-903) [13],0.1 nM
same,n (#G11 specific binding sites),sIGF-1R(1-903) [13],1.1
same,IC50,human IGF-1R(1-903)-Fc [14],13 nM
same,-TΔS,sIGF-1R(1-903) [15],14.8 kcal/mol
same,Kd,sIGF-1R(1-903) [15],6 nM
same,ΔG,sIGF-1R(1-903) [15],-11.2 kcal/mol
"M14-G11 Fab (Fab, V domains shown, Enzymatically derived Fab) VH: EVQLLESGGGLVQPGGSLRLSCAASGFTFSNYPMYWVRQAPGKGLEWVSRISSSGGRTVYADSVKGRFTISRDNSKNTLYLQMNSLRAEDTAVYYCARDRWSRSAAEYGLGGYWGQGTLVTVSS VL: not shown",fold loss in affinity (KD) against wild type,[16],~3 fold
same,fold loss in affinity (KD) against wild type,[17],~3 fold
same,binding result,[18],no binding (tested: up to 30 nM Fab)
same,binding result,[19],no binding (tested: up to 30 nM Fab)
same,Kd,sIGF-1R(1-903) [13],4 nM
same,n (#G11 specific binding sites),sIGF-1R(1-903) [13],1.7
same,IC50 (read off the curve),human IGF-1R(1-903)-Fc [20],~6 nM
